Patent publication US20040091492A1

Experiments:
[1] = target: HLA-A3 on Hmy2.C1R-A3 transfectant cells with the pn2a.A3 peptide (human)
[2] = target: HLA-A2 on Hmy2.C1R-A2 transfectant cells with the HIV gag 77-85 peptide (human), A*02:0
[3] = target: HLA-A1 on Hmy2.C1R-A1 transfectant cells with the OD 309 peptide (ornithine decarboxylase 309-317) (human); experiment: HLA stabilization assay, acid-stripped Hmy2.C1R-A1 cells with OD 309 peptide and BB7.5 mAb, flow cytometry
[4] = target: HLA-A3 on Hmy2.C1R-A3 transfectant cells with the pn2a.A3 peptide (human); remark: listed apart in the source
[5] = target: HLA-A1 on Hmy2.C1R-A1 transfectant cells with the OD 309 peptide (ornithine decarboxylase 309-317) (human); experiment: competition with 2.5 µM myc-hβ2m on Hmy2.C1R-A1 cells with OD 309 peptide, 9E10 flow cytometry
[6] = target: HLA-A2 on Hmy2.C1R-A2 target cells pulsed with HTLV-1 TAX 11-19 peptide (human), A*02:0; experiment: cell-based or functional assay

**Q.** What does the source list for “hβ2m S55V (human β2-microglobulin with valine at position 55 of the mature protein) (from UniProt P61769 21-119)”?
**A.** fold better inhibition of myc-hβ2m binding than wild-type hβ2m [1]: 2.5 fold; fold better inhibition of myc-hβ2m binding than wild-type hβ2m [2]: 2.5 fold; fold better stabilization than wild-type hβ2m [3]: 2 fold; fold better stabilization than wild-type hβ2m [4]: 3 fold; fold better inhibition of myc-hβ2m binding than wild-type hβ2m [5]: 2.5 fold; fold more effective than wild-type hβ2m at enhancing target cell lysis (CTL lysis assay) [6]: 4 fold
